According to paper PMC2753297:
Residue numbers refer to the chain shown, from its start. Names may count otherwise. Each block holds one binder with its values, some of them ahead of it.

Biological target: T1, ADAM10 (immunoprecipitated with anti-ADAM10 from HEK293T cells), O14672
T1 chain: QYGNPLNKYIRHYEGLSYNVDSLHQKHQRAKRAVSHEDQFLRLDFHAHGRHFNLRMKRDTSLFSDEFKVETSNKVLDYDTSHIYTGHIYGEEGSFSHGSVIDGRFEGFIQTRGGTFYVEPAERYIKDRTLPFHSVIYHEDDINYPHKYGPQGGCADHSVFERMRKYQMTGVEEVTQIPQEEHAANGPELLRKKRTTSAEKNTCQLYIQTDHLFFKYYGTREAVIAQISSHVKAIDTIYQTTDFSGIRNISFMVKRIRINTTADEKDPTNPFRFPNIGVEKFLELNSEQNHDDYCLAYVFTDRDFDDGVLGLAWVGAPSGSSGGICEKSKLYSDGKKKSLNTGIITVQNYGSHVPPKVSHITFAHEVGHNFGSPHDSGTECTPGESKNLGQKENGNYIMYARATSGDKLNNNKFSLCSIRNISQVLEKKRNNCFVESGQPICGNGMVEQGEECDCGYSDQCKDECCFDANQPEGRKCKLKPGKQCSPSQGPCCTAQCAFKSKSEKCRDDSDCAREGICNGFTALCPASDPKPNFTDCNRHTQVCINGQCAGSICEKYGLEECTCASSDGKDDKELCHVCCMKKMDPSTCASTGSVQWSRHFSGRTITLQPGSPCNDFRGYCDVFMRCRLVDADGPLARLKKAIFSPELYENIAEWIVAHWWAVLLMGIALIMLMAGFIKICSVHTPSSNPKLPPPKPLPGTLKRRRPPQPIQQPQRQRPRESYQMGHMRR
Test: co-immunoprecipitation (ADAM10 IP, EphA3 immunoblot, quantified)
Conditions: chain shown with the change; ephrin-A5-treated EphA3-transfected cells; n = 2 experiments; parent: est. 1.1; read off a plot; scale: ratio of EphA3 co-IP/lysate, EphA3[2YE] as internal reference

response: 0.42
B1: Wt EphA3-GFP, P29320 Y596E; Y602E; K653M (protein)
chain: ELIPQPSNEVNLLDSKTIQGELGWISYPSHGWEEISGVDEHYTPIRTYQVCNVMDHSQNNWLRTNWVPRNSAQKIYVELKFTLRDCNSIPLVLGTCKETFNLYYMESDDDHGVKFREHQFTKIDTIAADESFTQMDLGDRILKLNTEIREVGPVNKKGFYLAFQDVGACVALVSVRVYFKKCPFTVKNLAMFPDTVPMDSQSLVEVRGSCVNNSKEEDPPRMYCSTEGEWLVPIGKCSCNAGYEERGFMCQACRPGFYKALDGNMKCAKCPPHSSTQEDGSMNCRCENNYFRADKDPPSMACTRPPSSPRNVISNINETSVILDWSWPLDTGGRKDVTFNIICKKCGWNIKQCEPCSPNVRFLPRQFGLTNTTVTVTDLLAHTNYTFEIDAVNGVSELSSPPRQFAAVSITTNQAAPSPVLTIKKDRTSRNSISLSWQEPEHPNGIILDYEVKYYEKQEQETSYTILRARGTNVTISSLKPDTIYVFQIRARTAAGYGTNSRKFEFETSPDSFSISGESSQVVMIAISAAVAIILLTVVIYVLIGRFCGYKSKHGADEKRLHFGNGHLKLPGLRTEVDPHTEEDPTQAVHEFAKELDATNISIDKVVGAGEFGEVCSGRLKLPSKKEISVAIMTLKVGYTEKQRRDFLGEASIMGQFDHPNIIRLEGVVTKSKPVMIVTEYMENGSLDSFLRKHDAQFTVIQLVGMLRGIASGMKYLSDMGYVHRDLAARNILINSNLVCKVSDFGLSRVLEDDPEAAYTTRGGKIPIRWTSPEAIAYRKFTSASDVWSYGIVLWEVMSYGERPYWEMSNQDVIKAVDEGYRLPPPMDCPAALYQLMLDCWQKDRNNRPKFEQIVSILDKLIRNPGSLKIITSAAARPSNLLLDQSNVDITTFRTTGDWLNGVWTAHCKEIFTGVEYSSCDTIAKISTDDMKKVGVTVVGPQKKIISSIKALETQSKNGPVPV

response: 1
B2: Wt EphA3-GFP, P29320 Y596E; Y602E (protein)
chain: B1 chain with M633K
